Residue numbers refer to the chain shown, from its start. Names and notes keep the numbering of the source.
B1: serA: Escherichia coli wild-type 3-phosphoglycerate dehydrogenase (PGD, SEQ ID NO: 2) encoded by the serA gene (protein, listed as Escherichia coli)
chain: MAKVSLEKDKIKFLLVEGVHQKALESLRAAGYTNIEFHKGALDDEQLKESIRDAHFIGLRSRTHLTEDVINAAEKLVAIGCFCIGTNQVDLDAAAKRGIPVFNAPFSNTRSVAELVIGELLLLLRGVPEANAKAHRGVWNKLAAGSFEARGKKLGIIGYGHIGTQLGILAESLGMYVYFYDIENKLPLGNATQVQHLSDLLNMSDVVSLHVPENPSTKNMMGAKEISLMKPGSLLINASRGTVVDIPALCDALASKHLAGAAIDVFPTEPATNSDPFTSPLCEFDNVLLTPHIGGSTQEAQENIGLEVAGKLIKYSDNGSTLSAVNFPEVSLPLHGGRRLMHIHENRPGVLTALNKIFAEQGVNIAAQYLQTSAQMGYVVIDIEADEDVAEKALQAMKAIPGTIRARLLY
B2: serA416: E. coli PGD variant with replacement G349R (protein, UniProt P0A9T0 2-410, looked up, variant G349R)
D-3-phosphoglycerate …: AKVSLEKDKIKFLLVEGVHQKALESLRAAGYTNIEFHKGALDDEQLKESIRDAHFIGLRSRTHLTEDVINAAEKLVAIGCFCIGTNQVDLDAAAKRGIPVFNAPFSNTRSVAELVIGELLLLLRGVPEANAKAHRGVWNKLAAGSFEARGKKLGIIGYGHIGTQLGILAESLGMYVYFYDIENKLPLGNATQVQHLSDLLNMSDVVSLHVPENPSTKNMMGAKEISLMKPGSLLINASRGTVVDIPALCDALASKHLAGAAIDVFPTEPATNSDPFTSPLCEFDNVLLTPHIGGSTQEAQENIGLEVAGKLIKYSDNGSTLSAVNFPEVSLPLHGGRRLMHIHENRPRVLTALNKIFAEQGVNIAAQYLQTSAQMGYVVIDIEADEDVAEKALQAMKAIPGTIRARLLY
B3: serA231: E. coli PGD variant with replacement T372C (protein, UniProt P0A9T0 2-410, looked up, variant T372C)
D-3-phosphoglycerate …: B2 D-3-phosphoglycerate … with R348G, T371C
B4: serA214: E. coli PGD variant with replacement T372A (protein, UniProt P0A9T0 2-410, looked up, variant T372A)
D-3-phosphoglycerate …: B2 D-3-phosphoglycerate … with R348G, T371A
B5: serA228: E. coli PGD variant with replacement T372M (protein, UniProt P0A9T0 2-410, looked up, variant T372M)
D-3-phosphoglycerate …: B2 D-3-phosphoglycerate … with R348G, T371M
B6: serA11: E. coli PGD variant with replacement T372Y (protein, UniProt P0A9T0 2-410, looked up, variant T372Y)
D-3-phosphoglycerate …: B2 D-3-phosphoglycerate … with R348G, T371Y
B7: serA208: E. coli PGD variant with replacement T372H (protein, UniProt P0A9T0 2-410, looked up, variant T372H)
D-3-phosphoglycerate …: B2 D-3-phosphoglycerate … with R348G, T371H
B8: serA420: E. coli PGD variant with replacement G349H (protein, UniProt P0A9T0 2-410, looked up, variant G349H)
D-3-phosphoglycerate …: B2 D-3-phosphoglycerate … with R348H
B9: serA222: E. coli PGD variant with replacement T372V (protein, UniProt P0A9T0 2-410, looked up, variant T372V)
D-3-phosphoglycerate …: B2 D-3-phosphoglycerate … with R348G, T371V
B10: serA419: E. coli PGD variant with replacement G349F (protein, UniProt P0A9T0 2-410, looked up, variant G349F)
D-3-phosphoglycerate …: B2 D-3-phosphoglycerate … with R348F
B11: serA417: E. coli PGD variant with replacement G349W (protein, UniProt P0A9T0 2-410, looked up, variant G349W)
D-3-phosphoglycerate …: B2 D-3-phosphoglycerate … with R348W
B12: serA20: E. coli PGD variant with replacement T372I (protein, UniProt P0A9T0 2-410, looked up, variant T372I)
D-3-phosphoglycerate …: B2 D-3-phosphoglycerate … with R348G, T371I
B13: serA221: E. coli PGD variant with replacement T372Q (protein, UniProt P0A9T0 2-410, looked up, variant T372Q)
D-3-phosphoglycerate …: B2 D-3-phosphoglycerate … with R348G, T371Q
B14: serA45: E. coli PGD variant with replacement G349I (protein, UniProt P0A9T0 2-410, looked up, variant G349I)
D-3-phosphoglycerate …: B2 D-3-phosphoglycerate … with R348I
B15: serA226: E. coli PGD variant with replacement T372L (protein, UniProt P0A9T0 2-410, looked up, variant T372L)
D-3-phosphoglycerate …: B2 D-3-phosphoglycerate … with R348G, T371L
B16: serA40: E. coli PGD variant, mutation at codon 349 printed G349 (G349D per Table 3) (protein, UniProt P0A9T0 2-410, looked up, variant G349D)
D-3-phosphoglycerate …: B2 D-3-phosphoglycerate … with R348D
B17: serA445: E. coli PGD variant with replacement G349C (protein, UniProt P0A9T0 2-410, looked up, variant G349C)
D-3-phosphoglycerate …: B2 D-3-phosphoglycerate … with R348C
B18: serA421: E. coli PGD variant with replacement G349N (protein, UniProt P0A9T0 2-410, looked up, variant G349N)
D-3-phosphoglycerate …: B2 D-3-phosphoglycerate … with R348N
B19: serA210: E. coli PGD variant with replacement T372W (protein, UniProt P0A9T0 2-410, looked up, variant T372W)
D-3-phosphoglycerate …: B2 D-3-phosphoglycerate … with R348G, T371W
B20: serA220: E. coli PGD variant with replacement T372S (protein, UniProt P0A9T0 2-410, looked up, variant T372S)
D-3-phosphoglycerate …: B2 D-3-phosphoglycerate … with R348G, T371S
B21: serA46: E. coli PGD variant with replacement G349M (protein, UniProt P0A9T0 2-410, looked up, variant G349M)
D-3-phosphoglycerate …: B2 D-3-phosphoglycerate … with R348M
B22: serA218: E. coli PGD variant with replacement T372N (protein, UniProt P0A9T0 2-410, looked up, variant T372N)
D-3-phosphoglycerate …: B2 D-3-phosphoglycerate … with R348G, T371N
B23: serA219: E. coli PGD variant with replacement T372G (protein, UniProt P0A9T0 2-410, looked up, variant T372G)
D-3-phosphoglycerate …: B2 D-3-phosphoglycerate … with R348G, T371G
B24: serA47: E. coli PGD variant with replacement G349E (protein, UniProt P0A9T0 2-410, looked up, variant G349E)
D-3-phosphoglycerate …: B2 D-3-phosphoglycerate … with R348E
B25: serA422: E. coli PGD variant with replacement G349Q (protein, UniProt P0A9T0 2-410, looked up, variant G349Q)
D-3-phosphoglycerate …: B2 D-3-phosphoglycerate … with R348Q
B26: serA418: E. coli PGD variant with replacement G349Y (protein, UniProt P0A9T0 2-410, looked up, variant G349Y)
D-3-phosphoglycerate …: B2 D-3-phosphoglycerate … with R348Y
B27: serA212: E. coli PGD variant with replacement T372F (protein, UniProt P0A9T0 2-410, looked up, variant T372F)
D-3-phosphoglycerate …: B2 D-3-phosphoglycerate … with R348G, T371F

The molecules below were run on 3-phosphoglycerate dehydrogenase (PGD) (assay: PGD enzyme activity in crude extracts (McKitrick and Pizer test)). Conditions: crude extract of strain expressing plasmid-encoded serA allele; backward reaction, NADH oxidation at 340 nm.
Format: biochemical, Escherichia coli
Text: (§1) For example, the PGD activity can be determined in analogy with the method described by McKitrick and Pizer (1980, J. Bacteriol. 141:235-245). The backward reaction is used to measure the enzyme activity in an assay sample which contains phosphohydroxypyruvate and NADH/H^+. The reaction is started by adding enzyme and is monitored in a spectrophotometer by way of the decrease in extinction at 340 nm which is caused by oxidation of the NADH/H^+.
(§2) At an optical density of 1.0, serA expression was in each case induced by adding 0.4 mM […] and the culture was incubated for a further 3 hours. The cells were subsequently harvested by centrifugation, washed and resuspended in 2 ml of buffer (100 mM K-phosphate, pH 7.0; 10 mM MgCl2; 1 mM dithiothreitol). The cells were disrupted using a French press (Spectronic Instruments, Inc. Rochester, N.Y., USA) at a pressure of 18 000 psi. The crude extracts were clarified by centrifugation at 30 000 g and PGD activity was determined using the McKitrick and Pizer test (1980, J. Bacteriol. 141:235-245).
In the case of B1, the Activity is reported as 0.05 units/mg. B2 showed an Activity of 0.04 units/mg. B3 gave an Activity of 0.02 units/mg. In the case of B4, the Activity is reported as 0.04 units/mg. B5 gave an Activity of 0.03 units/mg. Molecule B6 has an Activity of 0.05 units/mg. Work on B7 yielded an Activity of 0.05 units/mg. B8 was tested, and the Activity was 0.05 units/mg. B9 showed an Activity of 0.05 units/mg. For B10, the Activity was 0.05 units/mg. Molecule B11 has an Activity of 0.02 units/mg. B12 was tested, and the Activity was 0.05 units/mg. For B13, the Activity was 0.05 units/mg. For B14, the Activity was 0.05 units/mg. In the case of B15, the Activity is reported as 0.04 units/mg. With B16 the Activity was 0.05 units/mg. With B17 the Activity was 0.04 units/mg. B18 gave an Activity of 0.05 units/mg. B19 gave an Activity of 0.04 units/mg. With B20 the Activity was 0.05 units/mg. With B21 the Activity was 0.05 units/mg. In the case of B22, the Activity is reported as 0.05 units/mg. In the case of B23, the Activity is reported as 0.05 units/mg. Molecule B24 has an Activity of 0.05 units/mg. B25 gave an Activity of 0.05 units/mg. With B26 the Activity was 0.05 units/mg. B27 showed an Activity of 0.05 units/mg.

What follows are molecules tested against 3-phosphoglycerate dehydrogenase (PGD) (assay: Inhibition of PGD activity by L-serine, inhibitor constant Ki). Conditions: Ki = inhibitor concentration at which activity is 50% of activity without inhibitor.
Format: biochemical, Escherichia coli
Text: as §1, §2
Work on B1 yielded a Ki of less than 0.1 mM. For B2, the Ki was 15 mM. B3 showed a Ki of 3 mM. B4 gave a Ki of 10 mM. Work on B5 yielded a Ki of 60 mM. B6 was tested, and the Ki was 35 mM. With B7 the Ki was 80 mM. With B8 the Ki was 10 mM. Work on B9 yielded a Ki of 40 mM. B10 was tested, and the Ki was 10 mM. B11 was tested, and the Ki was 8 mM. For B12, the Ki was 40 mM. Molecule B13 has a Ki of 100 mM. For B14, the Ki was 5 mM. With B15 the Ki was 40 mM. Work on B16 yielded a Ki of 25 mM. With B17 the Ki was 5 mM. B18 gave a Ki of 15 mM. B19 showed a Ki of 60 mM. Work on B20 yielded a Ki of 1 mM. Work on B21 yielded a Ki of 1 mM. Molecule B22 has a Ki of 100 mM. In the case of B23, the Ki is reported as 8 mM. In the case of B24, the Ki is reported as 20 mM. Work on B25 yielded a Ki of 15 mM. In the case of B26, the Ki is reported as 6 mM. B27 was tested, and the Ki was 60 mM.

From US7582460B2 (Wacker Chemie AG, priority 2003, dated 2009)
